System: CC(=O)SCCNC(=O)CCNC(=O)[C@H](O)C(C)(C)COP(=O)(O)OP(=O)(O)OC[C@H]1O[C@@H](n2cnc3c(N)ncnc32)[C@H](O)[C@@H]1OP(=O)(O)O
Experiment: purified protein, by the assay type
Details: other: substrate varied, all other reagents saturating, 37° C., pH 7.5

Chain of recombinant human ACC2 (Homo sapiens; V2141I) (chain, as listed by the source V2141I): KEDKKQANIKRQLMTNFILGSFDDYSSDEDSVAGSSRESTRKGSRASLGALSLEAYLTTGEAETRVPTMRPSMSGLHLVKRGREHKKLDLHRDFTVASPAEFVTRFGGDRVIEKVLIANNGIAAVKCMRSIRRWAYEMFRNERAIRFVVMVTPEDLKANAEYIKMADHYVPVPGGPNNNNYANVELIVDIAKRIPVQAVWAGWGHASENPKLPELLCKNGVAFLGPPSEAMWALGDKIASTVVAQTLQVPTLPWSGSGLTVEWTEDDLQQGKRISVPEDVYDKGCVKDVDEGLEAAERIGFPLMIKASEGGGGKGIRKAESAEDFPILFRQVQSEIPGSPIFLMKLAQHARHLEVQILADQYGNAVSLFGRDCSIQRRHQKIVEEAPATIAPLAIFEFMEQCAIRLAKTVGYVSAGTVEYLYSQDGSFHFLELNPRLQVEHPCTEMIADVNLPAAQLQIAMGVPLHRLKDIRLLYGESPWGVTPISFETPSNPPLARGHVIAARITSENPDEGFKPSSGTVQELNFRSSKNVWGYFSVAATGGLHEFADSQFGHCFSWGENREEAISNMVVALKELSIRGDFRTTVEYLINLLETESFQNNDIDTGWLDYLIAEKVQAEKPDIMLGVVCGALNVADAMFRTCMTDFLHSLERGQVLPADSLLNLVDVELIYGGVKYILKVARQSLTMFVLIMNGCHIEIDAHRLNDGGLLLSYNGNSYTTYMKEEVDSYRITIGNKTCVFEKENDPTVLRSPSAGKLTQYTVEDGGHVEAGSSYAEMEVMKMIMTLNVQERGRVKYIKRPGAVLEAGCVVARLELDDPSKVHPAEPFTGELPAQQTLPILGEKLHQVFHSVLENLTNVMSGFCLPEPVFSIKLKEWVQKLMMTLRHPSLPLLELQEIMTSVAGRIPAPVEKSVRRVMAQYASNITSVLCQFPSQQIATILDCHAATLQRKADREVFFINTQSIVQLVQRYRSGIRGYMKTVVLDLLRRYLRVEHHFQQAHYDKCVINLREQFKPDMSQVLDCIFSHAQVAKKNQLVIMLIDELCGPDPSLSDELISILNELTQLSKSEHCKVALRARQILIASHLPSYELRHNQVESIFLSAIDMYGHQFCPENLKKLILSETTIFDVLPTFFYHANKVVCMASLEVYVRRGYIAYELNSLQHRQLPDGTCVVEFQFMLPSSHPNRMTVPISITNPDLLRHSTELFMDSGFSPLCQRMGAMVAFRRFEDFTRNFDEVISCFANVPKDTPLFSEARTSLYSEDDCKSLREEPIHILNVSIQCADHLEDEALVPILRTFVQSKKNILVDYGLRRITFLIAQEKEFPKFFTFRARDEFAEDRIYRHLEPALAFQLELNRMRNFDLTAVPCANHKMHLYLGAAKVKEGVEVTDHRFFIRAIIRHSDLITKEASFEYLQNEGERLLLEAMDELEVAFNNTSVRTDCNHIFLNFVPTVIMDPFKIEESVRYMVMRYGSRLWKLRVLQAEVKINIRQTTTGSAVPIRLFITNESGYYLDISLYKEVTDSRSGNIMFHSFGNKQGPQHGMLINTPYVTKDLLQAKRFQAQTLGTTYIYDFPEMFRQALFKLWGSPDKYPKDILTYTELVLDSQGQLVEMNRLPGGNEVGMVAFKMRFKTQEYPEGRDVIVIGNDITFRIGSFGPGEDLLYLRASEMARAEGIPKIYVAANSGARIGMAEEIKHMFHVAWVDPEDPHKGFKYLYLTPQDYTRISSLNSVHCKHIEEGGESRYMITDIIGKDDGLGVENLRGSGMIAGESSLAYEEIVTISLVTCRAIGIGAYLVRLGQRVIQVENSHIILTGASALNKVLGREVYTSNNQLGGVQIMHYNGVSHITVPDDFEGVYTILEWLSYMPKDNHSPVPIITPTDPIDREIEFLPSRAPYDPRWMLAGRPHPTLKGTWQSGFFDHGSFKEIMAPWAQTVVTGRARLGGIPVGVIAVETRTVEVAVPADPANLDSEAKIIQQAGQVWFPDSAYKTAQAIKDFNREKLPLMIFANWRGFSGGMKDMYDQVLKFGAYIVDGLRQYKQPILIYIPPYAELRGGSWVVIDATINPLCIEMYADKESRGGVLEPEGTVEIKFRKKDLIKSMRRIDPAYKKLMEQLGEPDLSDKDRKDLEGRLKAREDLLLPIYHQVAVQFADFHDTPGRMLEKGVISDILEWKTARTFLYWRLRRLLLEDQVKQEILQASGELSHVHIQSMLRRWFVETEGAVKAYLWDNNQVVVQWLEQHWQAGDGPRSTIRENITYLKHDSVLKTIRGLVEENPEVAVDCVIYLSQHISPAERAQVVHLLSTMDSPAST

Substance: recombinant human ACC2 (Homo sapiens; V2141I)
- Km: 23 µM

From US7211423B2, “Acetyl CoA carboxylase 2 sequences and methods” (Bristol-Myers Squibb Co., priority 2004, dated 2007)
